Data set [1] in a line: Dipeptidyl peptidase activity assay with Gly-Pro p-nitroanilide substrate. The data set is classed as biochemical. Particulars: 0.5 mM Gly-Pro-pNA, 25° C., monitored at 405 nm, compared to buffer alone. The protocol:
One putative target of the enzyme might be the specific cleavage of the N-terminal peptide of pro-melittin to generate active melittin. The cleavage releases dipeptides with a C-terminal proline. Activity of such dipeptidases can be examined using the substrate Gly-Pro p-nitroanilide hydrochloride (Ref 22). Purified Api m 5 in NTA-binding buffer containing 300 mmol/L was incubated with 0.5 mM glycylpropyl p-nitroanilide (Gly-Pro-pNA, Sigma-Aldrich GmbH, Munich, Germany) as a substrate at 25° C. Released p-nitroaniline was spectrophotometrically monitored at 405 nm (FIG. 10).

Data set [2] has as its system phospholipase A2 (Api m 1), hyaluronidase (Api m 2), acid phosphatase (Api m 3), and melittin (Api m 4). Particulars: versus Api m 1, Api m 2, Api m 3, Api m 4 and other minor components (Ref. 14); cited from earlier work.
Data set [3] has as its system IgE from pooled serum from honey bee allergic patients. As to the kind of experiment: Immunoprinting of enriched Api m 5 with pooled serum from honey bee allergic patients (AlaBLOT, anti-IgE detection). The class given is binding, human. The settings on record: pooled serum from honey bee allergic patients diluted 1:10; anti-IgE alkaline phosphatase conjugate; BSA negative control. The protocol:
Detection was performed with anti-IgE alkaline phosphatase conjugate (DPC Alablot system). Lane 1: BSA, negative control; Lane 2: honey bee venom; Lane 3: Enriched Api m 5 fraction; Lane 4: Protein standard (PageRuler™ Prestained Protein Standard, Fermentas GmbH).
Immunoprinting was performed to verify the allergic potential of enriched Api m 5. Two SDS-PAGE gel slabs with each containing samples of bovine serum albumin, honey bee venom and bee venom enriched in Api m 5, were run and eletroblotted onto a nitrocellulose membranes (Protran™, Whatman GmbH, Dassel, Germany). The nitrocellulose membranes were pre-equilibrated in transfer buffer (20 mm CAPS, pH 11, 10% (v/v) methanol). Transfer was done at 50V for 3 hours submersed in blotting buffer in a blotting chamber (model TE22, Amersham Pharmacia, Freiburg, Germany) according to the instructions of the manufacturer. One membrane was subsequently stained with coomassie brilliant blue G250 according to the instructions of the manufacturer. […] Using the AlaBLOT system kit (DPC Biermann GmbH, Bad Nauheim, Germany) blocked sample strips were incubated with pooled serum from honey bee allergic patients diluted 1:10, washed and analyzed for binding of anti-IgE antibodies.

The test system of a further data set is bee venom allergic sera. The settings on record: two studies (Ref. 10); cited from earlier work.

“Also recorded” adds a separate entry of the source.

Consider two molecules from US7888068B2, “Cloning of honey bee allergen C” (PLS-Design GmbH, priority 2006, dated 2011).

B1: recombinant Api m 5: cloned recombinant Api m 5 expressed from vector pIB/Api5 with melittin signal sequence and His-tag (protein, listed as Apis mellifera)
chain: MEVLVQLALLLVVHGSLVVLVAGKSVPRVIDQDLERYEPLEEEDHRGARVPFNLEETYDQSFRANSFNGTWKTDREILYSDNYVGDIRLFDVTTGSGTVLLDSSVTADFDKASVMFSFDNSHVAIGHDYVNGFRYSIHQKCTVYNIKSRTFTDIANGDRIPLFKWSPTRNALIYVHKNDIYYQVFFEGGSDTRRITNTGVPDIVFNGIPDWVYEEEVLGSPVAFWISPDGRHLAFATFNDTNVRDIVISKYGSPGNSRDQYPNEIRIKYPKAGTTNPFVSLSVIDLHDPSSKLIDLPPPVDVVGADNVLYTANWRRDGEIVATWTNRVQNKAQLVLYDTKGNANNIYYEEETEGWLRIQPPLYHDRYVIVAKLQDSGTKAGRFLHATRLEYRNGALVDETDLTPGTCEVISLLLVDHARARLYYLGTELGKPSHKNLYSVQLSGNEPPVCLSCDVLTPEGNRCTYAYAYFSTNGSHYALYCAGPDPVFIAIVNANHRQISIWEENRSLRRKLAARTQPIVKNFNVNANGYTNKVKLYLPPDFDETKKYPLLITVYAGPNTIRITEEATYGFESYIVTNRSVIYGRIDGRGSAYKGSKMLFEIYRRLGTVEIEDQIIITRTLQEKYSWIDSNRTGIWGWSYGGFSAAMVLATDAESVFKCGISVAPVTSWIYYDSLYTERFMGLPTPEDNQSGYNDTDVSRRVEGMRGKKYMLIHGTADDNVHYQQTMMLNKALVNSDIMFQQQTYTDEAHALGNVFPHLYHTTDRFWANCLGYSH
modifications: His-tag, melittin signal
For B1, in data set [1], the “dipeptidyl peptidase activity (release of p-nitroaniline)” value was “Clearly the peptidase activity of recombinant Api m 5 in releasing the chromogenic label from the dipeptide can be seen; also recorded: showed a dipeptidyl peptidase activity”.

B2: Api m 5 (protein)
chain: KSVPRVIDQDLERYEPLEEEDHRGARVPFNLEETYDQSFRANSFNGTWKTDREILYSDNYVGDIRLFDVTTGSGTVLLDSSVTADFDKASVMFSFDNSHVAIGHDYVNGFRYSIHQKCTVYNIKSRTFTDIANGDRIPLFKWSPTRNALIYVHKNDIYYQVFFEGGSDTRRITNTGVPDIVFNGIPDWVYEEEVLGSPVAFWISPDGRHLAFATFNDTNVRDIVISKYGSPGNSRDQYPNEIRIKYPKAGTTNPFVSLSVIDLHDPSSKLIDLPPPVDVVGADNVLYTANWRRDGEIVATWTNRVQNKAQLVLYDTKGNANNIYYEEETEGWLRIQPPLYHDRYVIVAKLQDSGTKAGRFLHATRLEYRNGALVDETDLTPGTCEVISLLLVDHARARLYYLGTELGKPSHKNLYSVQLSGNEPPVCLSCDVLTPEGNRCTYAYAYFSTNGSHYALYCAGPDPVFIAIVNANHRQISIWEENRSLRRKLAARTQPIVKNFNVNANGYTNKVKLYLPPDFDETKKYPLLITVYAGPNTIRITEEATYGFESYIVTNRSVIYGRIDGRGSAYKGSKMLFEIYRRLGTVEIEDQIIITRTLQEKYSWIDSNRTGIWGWSYGGFSAAMVLATDAESVFKCGISVAPVTSWIYYDSLYTERFMGLPTPEDNQSGYNDTDVSRRVEGMRGKKYMLIHGTADDNVHYQQTMMLNKALVNSDIMFQQQTYTDEAHALGNVFPHLYHTTDRFWANCLGYSH
For the molecule B2, the cross-reactivity in immunodiffusion result in data set [2] is given as “noncross-reactive”. Also, the “binding of IgE / allergic potential in immunoprinting” value in data set [3] is “binds to sIgE of honey bee allergic patients; also recorded: exhibited the allergic potential as seen in whole bee venom”. In the data set with bee venom allergic sera, the “reaction of bee venom allergic sera” value is listed as “virtually all tested bee venom allergic sera have been shown to react”.
